# Laboratory results from the supplement of paper PMC9233669.
# This sample holds only a part of the variants without activity.
# Columns and labels:
# biotinyl-Phe-oxazolone = experiment: self-aminoacylation, catalytic enhancement (BFO) (fold over background); higher = more active; k-Seq, kA / k0A0; sequences stand for … in GGGAAUGGAUCCACAUCUACGAAUUC…UUCACUGCAGACUUGACGAAGCUG
# Method in brief: (§1)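 The uncatalyzed rate is the low-activity peak of a bimodal Gaussian fit, and catalytic enhancement is median kA divided by it. The kA values came from pseudo-first-order fits, with 1000 bootstraps, of per-sequence fraction reacted measured by streptavidin capture, triplicate qPCR and Illumina sequencing. Mutagenized RNA pools with a 21-nt variable region (0.43 μM) were reacted with each biotinyl-aminoacyl-oxazolone at 2–1250 μM in 50 μL HEPES/NaCl/KCl/MgCl2/CaCl2 buffer with 5% acetonitrile, pH 6.9–7.0, for 90 minutes at room temperature.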
# biotinyl-Ile-oxazolone = experiment: self-aminoacylation, catalytic enhancement (BIO) (fold over background); higher = more active; k-Seq, kA / k0A0; sequences stand for … in GGGAAUGGAUCCACAUCUACGAAUUC…UUCACUGCAGACUUGACGAAGCUG
# Method in brief: as §1
# biotinyl-Met-oxazolone = experiment: self-aminoacylation, catalytic enhancement (BMO) (fold over background); higher = more active; k-Seq, kA / k0A0; sequences stand for … in GGGAAUGGAUCCACAUCUACGAAUUC…UUCACUGCAGACUUGACGAAGCUG
# Method in brief: as §1
# biotinyl-Val-oxazolone = experiment: self-aminoacylation, catalytic enhancement (BVO) (fold over background); higher = more active; k-Seq, kA / k0A0; sequences stand for … in GGGAAUGGAUCCACAUCUACGAAUUC…UUCACUGCAGACUUGACGAAGCUG
# Method in brief: as §1
# biotinyl-Leu-oxazolone = experiment: self-aminoacylation, catalytic enhancement (BLO) (fold over background); higher = more active; k-Seq, kA / k0A0; sequences stand for … in GGGAAUGGAUCCACAUCUACGAAUUC…UUCACUGCAGACUUGACGAAGCUG
# Method in brief: as §1
# biotinyl-Trp-oxazolone = experiment: self-aminoacylation, catalytic enhancement (BWO) (fold over background); higher = more active; k-Seq, kA / k0A0; sequences stand for … in GGGAAUGGAUCCACAUCUACGAAUUC…UUCACUGCAGACUUGACGAAGCUG
# Method in brief: as §1
Sequence,self-aminoacylation (biotinyl-Phe-oxazolone),self-aminoacylation (biotinyl-Ile-oxazolone),self-aminoacylation (biotinyl-Met-oxazolone),self-aminoacylation (biotinyl-Val-oxazolone),self-aminoacylation (biotinyl-Leu-oxazolone),self-aminoacylation (biotinyl-Trp-oxazolone)
AUUACCCUGGUGAUCAAGUGA [Fam2.1 aminoacylation ribozyme variant],8.79,1.81,3.19,1.92,3.25,4.2
AUCCACCUAGGUCUUCGGGUG [Fam2.2 aminoacylation ribozyme variant],37.1,4.4,5.09,6.01,6.56,6.45
AUUCACCUAGGUUAUCGGGUA [Fam2.2 aminoacylation ribozyme variant],13.3,2.02,2.55,2.49,3.54,3.37
CCACACUGUAAGCAAUCGGUC [Fam1B.1 aminoacylation ribozyme variant],0.898,1.06,0.953,1.14,1.09,1.16
CAACUUCAAACAAUCGGCCUG [Fam1A.1 aminoacylation ribozyme variant],283,3.08,4.11,2.92,6.75,107
AUUAGCCAGGUCAUCGAGUGA [Fam2.1 aminoacylation ribozyme variant],19.1,3.72,5.35,3.8,5.48,6.91
AUUCACCUAGGUCAACAGGUG [Fam2.2 aminoacylation ribozyme variant],5.63,1.64,2.2,1.56,2.8,1.87
AUUGACCUAGGUCAUCCGGUG [Fam2.2 aminoacylation ribozyme variant],28.3,3.31,4.88,3.31,4.69,5.12
AAGUUUGCUGAUAGUAGCAAG [Fam3.1 aminoacylation ribozyme variant],1.41,0.892,1.07,1.24,0.88,1.05
CCAAACUUCAAGCAAUCGGUG [Fam1B.1 aminoacylation ribozyme variant],32.4,4.67,5.65,4.43,8.21,6.12
CUACACUUCAGGCAAUCGGUC [Fam1B.1 aminoacylation ribozyme variant],1.49,1,1.01,1.01,0.97,0.839
CUACUUCAAAGAAUCGGUCGG [Fam1A.1 aminoacylation ribozyme variant],1.37,0.763,0.844,0.795,1.05,1.12
CUUCUUCAAACAAUAGGUCUG [Fam1A.1 aminoacylation ribozyme variant],0.983,0.883,0.817,0.832,0.825,0.568
CCACACUACAUGCAAUCGGUC [Fam1B.1 aminoacylation ribozyme variant],0.877,0.737,0.743,0.888,0.762,0.812
AUUCCCCUGGUCUUCGAGUGA [Fam2.1 aminoacylation ribozyme variant],64.6,5.69,9.43,5.87,9.91,11.8
AUUAUCCUGGUCAUCCAGUGA [Fam2.1 aminoacylation ribozyme variant],11.1,2.14,3.69,2.28,4.27,4.26
UUUACCCUGGUUAUCGAGUGA [Fam2.1 aminoacylation ribozyme variant],25.7,4.28,7.81,4.19,7.57,10.6
CCACUCGUCAAGCAAUCGGUC [Fam1B.1 aminoacylation ribozyme variant],0.586,1.15,1.18,1.58,1.35,0.864
AAAUUUGCUAAUAGUCACAAG [Fam3.1 aminoacylation ribozyme variant],2.81,1.58,1.62,1.49,1.26,1.71
CCGCACUUCAAGGAAUCGGUC [Fam1B.1 aminoacylation ribozyme variant],10.7,1.45,1.37,1.52,1.44,10.8
AAGUUUUCUAAGAGUCGCAAG [Fam3.1 aminoacylation ribozyme variant],3.16,1.65,1.32,1.62,1.62,1.51
AUUCACGUAGGUCAUUGGGUG [Fam2.2 aminoacylation ribozyme variant],25.2,3.18,4.43,4,5.11,4
AAGUUUGGUAAUAGUCGUAAG [Fam3.1 aminoacylation ribozyme variant],1.44,1.04,0.961,0.916,0.801,1.11
AUUCAGCUAGGUCAACGGGUG [Fam2.2 aminoacylation ribozyme variant],5.84,1.81,1.92,1.83,2.43,2.6
AUUCACCUACGUCAUCCGGUG [Fam2.2 aminoacylation ribozyme variant],46.7,4.29,5.94,3.84,8.48,7.01
ACACACUUCAAGCAAACGGUC [Fam1B.1 aminoacylation ribozyme variant],1.56,1.02,0.749,1.04,0.941,1.13
